# Source: paper PMC12784961, “Structure of Bacillus subtilis Ku-mediated DNA synaptic complex”
# T1: bsKu core (wild type) (Bacillus subtilis, UniProt O34859 18-244)
# T1 sequence: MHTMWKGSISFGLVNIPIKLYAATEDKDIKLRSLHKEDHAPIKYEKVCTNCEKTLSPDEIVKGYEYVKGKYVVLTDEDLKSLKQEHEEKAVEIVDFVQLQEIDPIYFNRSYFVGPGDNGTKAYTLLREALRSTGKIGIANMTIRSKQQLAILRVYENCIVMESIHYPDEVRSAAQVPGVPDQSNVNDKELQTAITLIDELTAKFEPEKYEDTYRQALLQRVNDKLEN
# Legend:
# [1] = target: T1, bsKu core (wild type); assay: size-exclusion chromatography; 1:1 complex, no oligomerization; EMSA: 20 mM HEPES pH 7.5, 150 mM KCl, 1 mM DTT, 50 nM DNA, 30 min at 4°C, 15% native PAGE in 0.5x TBE, SYBR Gold; SEC: same buffer, protein:DNA 1:2, 1 h at 4°C, Superdex 75; conditions: protein: recombinant; tags: N-terminal 8xHis-MBP, cleaved with PreScission protease; chain copies: 2; 2-nt overhang; main text says at one end
# [2] = target: T1, bsKu core (wild type); assay: cryo-EM; 2.74 A; two blunt ends bridged by two Ku homodimers; EMSA: 20 mM HEPES pH 7.5, 150 mM KCl, 1 mM DTT, 50 nM DNA, 30 min at 4°C, 15% native PAGE in 0.5x TBE, SYBR Gold; SEC: same buffer, protein:DNA 1:2, 1 h at 4°C, Superdex 75; conditions: protein: recombinant, tags: N-terminal 8xHis-MBP, cleaved with PreScission protease, chain copies: 2
binder,measurement,setting,value
11-bp DNA with 2-nt overhang (dsDNA) DNA 1: ACACACGCCGAGC DNA 2: GCTCGGCGTGT,binding result,[1],binds
13-bp DNA (dsDNA) DNA 1: GTACCTGTAGAAG DNA 2: CTTCTACAGGTAC,binding result,[2],binds
